Laboratory results as given in patent publication US20100150950A1, “HUMAN ANTIBODIES THAT BIND CD70 AND USES THEREOF” (Medarex, Inc., priority 2006, published 2010).
Where a chain is given by its changes, count along the chain named.

T1: CD70+ renal carcinoma 786-O cells (Homo sapiens, UniProt P32970)
T1 construct: natively expressing CD70+ human cancer cell line 786-0 cells; endogenous in cells; host or cells: 786-O (ATCC CRL-1932), A-498 (HTB-44), ACHN (CRL-1611), Caki-1 (HTB-46), Caki-2 (HTB-47)
T1 sequence (P32970 1-193): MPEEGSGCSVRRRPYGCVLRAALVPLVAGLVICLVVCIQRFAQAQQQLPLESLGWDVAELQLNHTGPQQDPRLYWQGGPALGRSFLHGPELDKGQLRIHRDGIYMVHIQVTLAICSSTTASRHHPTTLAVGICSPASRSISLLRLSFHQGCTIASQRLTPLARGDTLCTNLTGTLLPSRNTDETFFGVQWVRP

B1: anti-CD70 human monoclonal antibody 69A7 (antibody, V domains shown)
VH: QVQLQESGPGLVKPSETLSLTCTVSGGSVSSDYYYWSWIRQPPGKGLEWLGYIYYSGSTNYNPSLKSRVTISVDTSKNQFSLKLRSVTTADTAVYYCARGDGDYGGNCFDYWGQGTLVTVSS
VL: EIVLTQSPATLSLSPGERATLSCRASQSVSSYLAWYQQKPGQAPRLLIFDASNRATGIPARFSGSGSGTDFTLTISSLEPEDFAVYYCQQRSNWPLTFGGGTKVEIK
notes: Human IgG from hybridoma; also called HuMAb 69A7; FITC-conjugated 69A7
B2: 2H5 NF: 2H5 HuMAb lacking fucosyl residues, expressed in CHO cell line Ms704-PF (antibody, V domains shown)
VH: QVQLVESGGGVVQPGRSLRLSCAASGFTFSSYIMHWVRQAPGKGLEWVAVISYDGRNKYYADSVKGRFTISRDNSKNTLYLQMNSLRAEDTAVYYCARDTDGYDFDYWGQGTLVTVSS
VL: B1 VL with F49Y, S92T

How the values were obtained:
[1] = molecular target: T1, CD70+ renal carcinoma 786-O cells; assay: Blocking of mouse anti-CD70 antibody BU-69 binding; conditions: BU-69 1 μg/ml; 69A7 1, 5 or 10 μg/ml
Experimental: In this experiment, the HuMAb anti-CD70 antibody 69A7 was tested for its ability to block binding of a known mouse anti-CD70 antibody to CD70+renal carcinoma 786-O cells. 786-O cells were incubated with the mouse anti-CD70 antibody BU-69 (Ancell, Bayport, Minn.) at 1 μg/ml and the HuMAb 69A7 at 1, 5 or 10 μg/ml for 20 minutes on ice. IgG1 and IgG2 isotype control antibodies were used as negative controls. The cells were washed twice and binding was detected with a FITC-labeled anti-human IgG Ab. Flow cytometric analyses were performed using a FACSCalibur flow cytometry (Becton Dickinson, San Jose, Calif.).

activated human B cells = assay: Binding to and ADCC of activated human B cells (51Cr); format: cell-based
Experimental: In this study, a HuMAb anti-CD70 antibody and the nonfucosylated form were tested for their ability to mediate ADCC effects on human B cells. Frozen human spleen cells were thawed and B cells were negatively purified by magnetic beads. Purified B cells were cultured at 2×10^6/ml in RPMI+10% FBS supplemented with NEAA, sodium pyruvate, β-ME and penicillin/streptomycin. B cells were activated by 10 μg/ml of LPS and 5 μg/ml anti-CD40 for 3 days. The cells were harvested, washed and an aliquot was stained with biotin conjugated nonfucosylated 2H5 (2H5 NF-bio)+streptavidin-APC. Human peripheral blood mononuclear effector cells were purified from heparinized whole blood by standard Ficoll-Paque separation and cultured overnight in of 50 U/ml IL-2. The activated B cells were labeled with 100 μCi of Na2 ^51CrO4 (Perkin Elmer, Wellesley, Mass.) per 1×10^6 cells for 1 hour. Effector cells were added to labeled target cells at a ratio of […] in the presence of serial dilutions of 2H5 and 2H5 NF (non-fucosylated). In addition, the test articles were assayed at 10 μg/ml in the presence of 20 μg/ml murine anti-CD 16 antibody 3G8 or mouse isotype control antibody. Following […] for 4 hours at 37° C., cells were centrifuged and the supernate was read on the Cobra II auto-gamma counter (Perkin Elmer) with a reading window of 240-400 KeV. The percent specific lysis was calculated as: (experimental release−spontaneous release)/(maximal release−spontaneous release)×100 where: (i) target cells with no effector cells and no antibody control for spontaneous release and (ii) target and effector cells in presence of 3% Lysol detergent control for maximal release. Percent specific lysis was plotted against antibody concentration and the data was analyzed by non-linear regression, sigmoidal dose response (variable slope) using GraphPad Prism™ 3.0 software (San Diego, Calif.).

activated T cells = assay: ADCC fluorescence cytotoxicity assay, activated T cells; format: cell-based, human
Experimental: In this example, a defucosylated and non-defucosylated anti-CD70 monoclonal antibody was tested for the ability to kill activated T cells in the presence of effector cells via antibody dependent cellular cytotoxicity (ADCC) in a fluorescence cytotoxicity assay.
Human Anti-CD70 monoclonal antibody 2H5 was defucosylated as described above. Human effector cells were prepared as described above. Human spleen T cells were positively selected with anti-CD3 coated magnetic beads (Purity>90%). The cells were stimulated with anti-CD3 and anti-CD28 coated beads and 25 ng/ml IL-2 in Iscove's media+10% heat inactivated FCS for 6 days. Cells were collected and assayed for viability by propidium iodide incorporation (60% viable) and live cells were gated and analyzed for CD70 expression (˜65% CD70+ on live cells) prior to inclusion in ADCC assays.
The activated T cells were tested for antibody specific ADCC to the defucosylated and non-defucosylated human anti-CD70 monoclonal antibody 2H5 using the Delfia fluorescence emission analysis as follows. […] Following a 2100 rpm pulse spin and one hour incubation at 37° C., the supernatants were collected, quick spun again and 20 μl of supernatant was transferred to a flat bottom plate, to which 180 μl of Eu solution (Perkin Elmer, Wellesley, Mass.) was added and read in a Fusion Alpha TRF plate reader (Perkin Elmer). […]

blocking of mouse anti-CD70 antibody BU-69 binding [1]	Molecule	potency relative to 2H5 (activated human B cells; ADCC of activated human B cells)	activated B cells bound (activated human B cells; biotin conjugated 2H5 NF + streptavidin-APC, FACS)	lysis of activated human B cells (ADCC) (activated human B cells; effector to target 1:100 as printed, 4 hours)	antibody mediated cytotoxicity with addition of anti-CD16 antibody (activated T cells; activated T cells)	ADCC, % specific lysis of activated T cells (activated T cells; target to effector ratio 1:50)
blocks binding	B1					
	B2	approximately 10 fold	~60%	induced lysis	blocked	increased percentage of specific lysis
